{"source": "patent US11433139B2", "about": "“Peptide vaccines against interleukin-31” (Zoetis Services LLC, priority 2018, dated 2022)", "molecules": {"B1": {"name": "15H05: mouse anti IL-31 monoclonal antibody, VH SEQ ID NO: 67, VL SEQ ID NO: 69 (antibody, listed as Mus musculus, V domains shown)", "VH": "QVQLQQSAAELARPGASVKMSCKTSGYTFTSYTIHWIKQRPGQGLEWIGNINPTSGYTENNQRFKDKTTLTVDRSSNTAYLQLHSLTSEDSAVYFCARWGFKYDGEWSFDVWGAGTTVTVSS", "VL": "DIQMNQSPSSLSASLGDTITVTCRASQGISIWLSWYQQKPGNIPKVLINKASNLHIGVPPRFSGSGSGTHFTLTITSLQPEDIATYYCLQSQTYPLTFGGGTKLEIN"}}, "key": {"feline IL-31": {"molecular_target": "feline IL-31", "sequence (as listed by the source)": "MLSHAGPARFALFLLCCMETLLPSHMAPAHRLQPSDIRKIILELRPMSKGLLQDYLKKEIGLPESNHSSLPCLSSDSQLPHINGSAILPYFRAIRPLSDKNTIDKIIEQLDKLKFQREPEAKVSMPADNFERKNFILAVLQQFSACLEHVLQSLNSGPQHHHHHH", "assay": "Affinity of anti-IL-31 antibodies by surface plasmon resonance (Biacore), feline IL-31 surface", "type": "binding", "settings": "IL-31 conjugated to the surface (FIG. 2)", "in_short": "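IL-31 amine-coupled (NHS/EDC) at 5 μg/mL directly onto the SPR chip, quenched with ethanolamine; candidate mAbs flowed over as analyte. KD from 1:1 model fits; values below 1×10^−11 M are under the instrument's lower quantitation limit.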"}, "[1]": {"test_system": "feline IL-31 15H05 mutant", "sequence (as listed by the source, change not shown)": "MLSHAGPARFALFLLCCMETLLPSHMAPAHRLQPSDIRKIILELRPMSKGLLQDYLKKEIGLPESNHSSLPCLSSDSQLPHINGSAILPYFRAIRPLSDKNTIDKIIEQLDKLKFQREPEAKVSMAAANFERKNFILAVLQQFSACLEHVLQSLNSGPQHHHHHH", "assay": "Indirect ELISA, binding to feline IL-31 15H05 mutant", "settings": "compared with wildtype", "in_short": "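Wildtype or 15H05-epitope-mutant feline IL-31 coated directly onto plates as capture antigen (50 ng/well). Antibodies diluted in PBST, bound antibody detected with HRP-labelled secondary and TMB for 10 min at RT. Reaction stopped with 0.1 N HCl, then OD read at 450 nm.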"}, "canine IL-31": {"test_system": "canine IL-31", "sequence (as listed by the source)": "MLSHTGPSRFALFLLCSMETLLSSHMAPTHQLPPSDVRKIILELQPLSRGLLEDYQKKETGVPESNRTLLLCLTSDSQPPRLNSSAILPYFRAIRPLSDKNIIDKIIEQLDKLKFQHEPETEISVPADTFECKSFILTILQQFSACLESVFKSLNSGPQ", "assay": "Competition binding assessment using Biacore, canine IL-31 surface", "settings": "sequential addition of 15H05 and 11E12, Biacore", "protocol": "To further characterize the IL-31 epitopes bound by mAbs 15H05 and 11 E12, blocking experiments were performed using biacore where the surface containing the IL-31 protein was generated followed by sequential addition of antibodies. FIGS. 7A and 7B show the relative binding of each antibody to IL-31 following capture of 11E12 or 15H05. The columns labeled HBS-EP (assay buffer) indicate the maximum signal obtained from each antibody binding to the IL-31 surface alone without competition. […] The sensograms related to FIG. 7A show the disassociation kinetics of both antibodies are very slow on this newly formed biacore surface therefore no additional occupation of binding sites can occur with addition of the same antibody (data not shown)."}}, "data": [{"molecule": "B1", "values": [{"measurement": "affinity (KD) to feline IL-31", "setting": "feline IL-31; listed as Mu-15H05", "value": "sub-nanomolar"}, {"measurement": "affinity (KD) to feline IL-31", "setting": "feline IL-31; listed as mAb 15H05", "value": "high"}, {"measurement": "binding to feline IL-31 15H05 mutant (ELISA)", "setting": "[1]", "value": "complete loss"}, {"measurement": "competition binding on canine IL-31", "setting": "canine IL-31", "value": "capable of binding to canine IL-31 in the presence of one another"}]}]}
